Experiments:
[1] = biological target: MHV68 gL-gH fusion protein (gL-Linker-gH-Linker-His6) (murine gammaherpesvirus 68 (MHV68))
[2] = biological target: MHV68 gL-gH fusion protein (gL-Linker-gH-Linker-His6) (murine gammaherpesvirus 68 (MHV68)); assay: ELISA; MHV68 gL-gH fusion protein coated at 2.5 μg/ml in PBS on Maxisorp plates; dimeric soluble murine Eph-Fc proteins 2 h at room temperature in 1% BSA in PBS; detected with ProteinG-HRP; four-parameter dose-response fit

## recombinant soluble murine EphA4-Fc (from UniProt Q03137 20-547) (Fc fusion)
[1]
  reduction of MHV68 ORF59-GFP infection of the murine endothelial cell line SVEC4-10 after pre-incubation of virions with 100 nM homodimerized mEphA4-Fc: 25%
[2]
  EC50: 3.6 nM

B1: recombinant soluble murine EphB3-Fc (Fc fusion)
chain: LEETLMDTKWVTSELAWTSHPESGWEEVSGYDEAMNPIRTYQVCNVRESSQNNWLRTGFIWRREVQRVYVELKFTVRDCNSIPNIPGSCKETFNLFYYEADSDVASASSPFWMENPYVKVDTIAPDESFSRLDAGRVNTKVRSFGPLSKAGFYLAFQDQGACMSLISVRAFYKKCASTTAGFALFPETLTGAEPTSLVIAPGTCIANAVEVSVPLKLYCNGDGEWMVPVGACTCATGHEPAAKESQCRACPPGSYKAKQGEGPCLPCPPNSRTTSPAASICTCHNNFYRADSDSADSACTTVPSPPRGVISNVNETSLILEWSEPRDLGGRDDLLYNVICKKCRGSSGAGGPATCSRCDDNVEFVPRQLGLTERRVHISHLLAHTRYTFEVQAVNGVSGKSPLPPRYAAVNITTNQAAPSEVPTLHLHSSSGSSLTLSWAPPERPNGVILDYEMKYFEKSKGIASTVTSQKNSVQLDGLQPDARYVVQVRARTVAGYGQYSHPAEFETTSERGSGAQQLQEQLPL
[1]
  inhibition of MHV68 ORF59-GFP infection of human fibroblasts (HFF) and endothelial cells (TIME) after pre-incubation of virions with 100 nM homodimerized mEphB3-Fc: 30%
  reduction of MHV68 ORF59-GFP infection of NIH 3T3 murine fibroblasts after pre-incubation of virions with a concentration series of soluble mEphB3-Fc, up to 100 nM homodimerized protein: 40%
[2]
  EC50: 2.3 nM

From doi:10.1101/2025.06.05.657996
